Drawing on patent US20150024453A1, “INTEGRATED PROCESS FOR DUAL BIOCATALYTIC CONVERSION OF CO2 GAS INTO BIO-PRODUCTS BY ENZYME ENHANCED HYDRATION AND BIOLOGICAL CULTURE” (CO2 SOLUTIONS INC., priority 2012, published 2015), this text covers enzyme activity for one substance.

The series is described as follows: Tests of carbonic anhydrase activity in carbonate absorption solutions. The format is biochemical. The text has this: The absorption solution that is fed to the enzymatic bicarbonate production unit may be a sodium carbonate solution having a sodium carbonate concentration between about 0.3M and about 2.4M (temperature being between about 30 t for a concentration of about 2.5M) or a potassium carbonate solution having a potassium carbonate concentration between about 1M and about 2M. Tests have confirmed that carbonic anhydrase has good activity in sodium carbonate between 0.3M and 0.5M and in potassium carbonate at 1.45M. Halophile-type carbonic anhydrase, with elevated resistance to salt, may be used for higher concentrations. As opposed to carbonates, bicarbonates are less soluble (two times less approximately) and, therefore, if precipitation occurs, it would be of bicarbonate salts rather than carbonate salts. Cooling the ion loaded solution exiting the enzymatic CO2 capture unit may also encourage precipitation, as the solubility of bicarbonates and carbonates would be lowered. For sodium bicarbonate, temperature may be carefully adjusted since below about 30° C., a solution at 2.5M would not be soluble. The following Solubility Table may be used to set, adjust or control the carbonate or bicarbonate concentration as well as temperature in the enzymatic bicarbonate production and CO2 capture unit: […]

As to carbonic anhydrase, the enzyme activity result reads like this: (in potassium carbonate at 1.45M) “good activity”; (in sodium carbonate between 0.3M and 0.5M) “good activity”.
